# Experimental data reported in publication PMC3601010, “The complete N-terminal extension of heparin cofactor II is required for maximal effectiveness as a thrombin exosite 1 ligand” (BMC Biochemistry, 2013).
# Entries after “also recorded” stand apart in the source; their conditions may differ. Ends that are not written are not given here.
# Columns and labels:
# HCII = conditions: ref [47]; read-out: KD, HCII-dermatan sulfate interaction; cited from earlier work
# Source text: (§1) The relative contributions to HCII function of a template mechanism, in which thrombin and HCII become co-localized due to their binding to the same glycosaminoglycan chain, or a conformational change mechanism, in which GAG binding to HCII releases the N-terminal extension of HCII for exosite 1 binding, remain somewhat controversial, as does the degree of cross-talk between thrombin’s exosites and active site.
# thrombin [1] = molecular target: T1, thrombin (Homo sapiens, UniProt P00734); conditions: ref [47]; read-out: KD, thrombin binding to dermatan sulfate; cited from earlier work
# T1 construct: purchased Enzyme Research, South Bend, IN; host or cells: HCII 1-75 probe made in house in E. coli TOP10
# Source text: as §1
# α-thrombin [2] = molecular target: T2, α-thrombin (Homo sapiens, UniProt P00734); experiment: competition of heparin-catalysed thrombin inhibition by plasma-derived HCII (k2app); type: biochemical; set-up: purchased Enzyme Research, South Bend, IN; conditions: 250 μM competitor peptide, 140 nM plasma-derived HCII, 55 μg/mL standard heparin
# Description: (§2) The apparent second-order rate constant (k2app) of α-thrombin inhibition by purified plasma-derived HCII (Affinity Biologicals, Ancaster, ON) was determined under pseudo-first order conditions involving an excess of plasma-derived HCII over α-thrombin using a discontinuous assay as previously described, with or without addition of competitor HCII 1-75, HCII 54-75, or HCII 1-53 at 0.25 mM. Briefly, plasma-derived HCII (140 nM) was incubated with α-thrombin (14 nM) in PPNE buffer (20 mM Na2HPO4, pH 7.4, 100 mM NaCl, 0.1 mM EDTA, 0.1% polyethylene glycol 8000) supplemented with 0.055 mg/mL (2 μM) standard heparin (Hepalean, Organon Teknika Canada, St. Laurent, QC) and 10 μM S2238 (DiaPharma,West Chester OH) or 0.055 mg/mL (1.4 μM) dermatan sulfate (Sigma-Aldrich, St. Louis, MO). Residual protease activity was determined by diluting the reactions 100-fold into 100 μM S2238 and measuring the absorbance at 405 nm for 5 minutes using an EL808 plate reader (BioTek Instruments, Winooski, VT).
# (§3) Figure 5 Effects of HCII-derived peptides on the inhibition of thrombin by plasma-derived HCII in the presence of GAGs. […] The competing peptides that were used separately at 250 μM were: HCII 1-75; HCII 54-75; or HCII 1-53. The mean ± the SD of 3 independent experiments is shown.
# α-thrombin [3] = molecular target: T2, α-thrombin; experiment: competition of dermatan sulfate-catalysed thrombin inhibition by plasma-derived HCII (k2app); type: biochemical; set-up: purchased Enzyme Research, South Bend, IN; conditions: 250 μM competitor peptide, 1.4 μM dermatan sulfate
# Description: as §2, §3
# human thrombin = experiment: thrombin clotting time in plasma; type: biochemical
# Description: Thrombin times were determined using Thrombin 10 (freeze-dried human thrombin with calcium [1.5 NIH units/mL] Diagnostica Stago, Asnieres, France) and an STA 4 coagulation analyzer (Diagnostica Stago). Citrated human plasma (25 μL) was combined with 75 μL veronal buffer (7.14 mM sodium acetate trihydrate, 7.4 mM sodium diethyl barbiturate, 131 mM NaCl pH 7.4) containing or lacking HCII- or hirudin-related peptides, and clotting time was determined following the addition of 100 μL Thrombin 10 reagent.
# Figure 4 Effects of competitor peptides on thrombin clotting time. […] The mean ± the SD of 3 independent experiments is shown.
# thrombin [4] = molecular target: T1, thrombin; experiment: SPR competition of thrombin binding to chip-immobilized HCII 1-75
# Description: Surface plasmon resonance experiments were carried out using a BIAcore X biosensor instrument (Biacore, Piscataway, NJ) at 25°C. Biotinylated HCII- or hirudin-related peptides were immobilized on streptavidin-coated sensor chips (GE Healthcare) under conditions recommended by the manufacturer. […] A flow rate of 2 μL/minute was employed for immobilization runs, with 0.5 M NaCl employed as a regeneration buffer and HEPES-buffered saline (10 mM HEPES, 150 mM NaCl, 0.005% Tween-20, pH 7.7) otherwise used for binding determinations. Binding of thrombin (0-30 μM) was assessed using 20 μL injection volumes, and flow rates of 20 μL/minute. BIAcore Evaluation 3.2 (BIAcore) software was used to evaluate sensorgrams from each run, using either 1:1 Langmuir binding or steady state analysis. In some experiments various concentrations of HCII- or hirudin-related peptides were combined with 250 nM thrombin or FPR-ck-thrombin immediately prior to being flowed over chip-bound HCII 1-75.
# Figure 6 Senorgrams from surface plasmon resonance (SPR) experiments. Biotinylated HCII 1-75 was bound to streptavidin-coated sensor chips and varying concentrations of thrombin were flowed over the chip, generating sensorgrams (e.g. Panel A) of the response in response units (RU) versus the time in seconds. Panel B is a plot of experiment shown in Panel A, combined with two other independent experiments; each point therefore represents the mean mid-plateau response ± the SD of 3 independent experiments. In panels C-F the thrombin concentration was fixed at 250 nM and competitor peptides identified in each panel were combined with thrombin and flowed over the chip. The concentration of competitor peptides in each experiment is shown to the left of the sensorgram.
# thrombin [5] = conditions: ref [21], cited from earlier work
# Source text: Although the differences between the encounter complex and the native structure support the allosteric model of activation, they provide no information on the position or role of the first 54 residues of HCII. […] We replicated this experiment and extended it to include all four of the exosite 1 ligand peptides employed in this study, as shown in Figure 4. We used the measurement previously employed to judge the potency of the peptides, the concentration required to double the thrombin clotting time. […] While there are no similar values in the literature available for HCII 1-75 for comparison to our results, ...
# α-thrombin [6] = molecular target: T2, α-thrombin; experiment: amidolytic activity of thrombin against S2238 after modification; type: biochemical; set-up: purchased Enzyme Research, South Bend, IN; conditions: bFPRck:thrombin molar ratio 10:1, TBS pH 7.4, ten minutes ambient
# Description: HCII- or hirudin-related peptides in 50 mM sodium phosphate pH 6.5 were combined with 20-fold molar excess sulfosuccinimidyl-6-(biotinamido) hexanoate (sulfo-NHS-LC-biotin, Pierce) at ambient temperature for 30 minutes. Reactions were quenched with excess Tris-Cl pH 7.4 and sulfo-NHS-LC-biotin removed by desalting or dialysis. Biotinylated FPR chloromethylketone (bFPRck; Haematologic Technologies, Essex Junction, VT) was used to modify α-thrombin at a bFPRck: thrombin molar ratio of 10:1 in Tris-buffered saline (TBS, pH 7.4) for ten minutes at ambient temperature. Excess reagent was removed by overnight dialysis versus TBS.
# α-thrombin [7] = molecular target: T2, α-thrombin; experiment: competition of binding of α-thrombin to HCII 1-75 immobilized on microtiter plate wells; set-up: purchased Enzyme Research, South Bend, IN; host or cells: HCII 1-75 probe made in house in E. coli TOP10; conditions: 5 nM thrombin, 37°C 30 min, anti-thrombin antibody, OD 490 nm; mean of 3 determinations ± SD
# Description: Purified HCII 1-75 was immobilized onto an Immulon 4 HBX 96 well microtiter plate (Thermo, Milford MA), using a 1 μM solution of HCII 1-75 in PBS at 0.1 mL per well overnight at 4°C. The HCII solution was then removed and the wells blocked with 5% BSA (w/vol) in PBS-T for one hour at ambient temperature. […] Wells were washed and reacted with horseradish peroxidase-conjugated sheep anti-human thrombin antibody (Affinity Biologicals, Ancaster, ON), diluted 1:10,000 in blocking buffer, for one hour at ambient temperature. Following washes with PBS-T, colour was developed using a freshly made solution of 5 mg o-phenylenediamine (Pierce) in 12 mL of 25 mM citric acid, 97 mM Na2HPO4 pH5.0 supplemented with 0.03% (v/vol) hydrogen peroxide for ten minutes prior to stopping the reaction with sulfuric acid. The optical density at 490 nm was then read on an EL808 Plate reader (Biotek Instruments, Winooski, VT). […] The same program was used to calculate IC50s in competitive binding experiments in which HCII-derived or hirudin-derived peptides were used to compete the binding of thrombin to immobilized HCII 1-75.
substance,measurement,setting,value
dermatan sulfate,Kd,HCII,236000 to 290000 nM
same,Kd,thrombin [1],2000 to 6000 nM
"HCII 1-53: Synthetic peptide containing the first 53 residues of human HCII and a nonapeptide N-terminal tag ({Met-Gly-Ser-H2N-H2N-H2N-H2N-H2N-H2N}-GSKGPLDQLEKGGETAQSADPQWEQLNNKNLSMPLLPADFHKENTVTNDWIPE; UniProt P05546 20-72, looked up, fragment)","effect on rate of thrombin inhibition by plasma-derived HCII, heparin",α-thrombin [2],"no effect; also recorded: no detectable ability to bind thrombin, to delay thrombin-mediated coagulation, or to compete for the N-terminal HCII 1-75 extension in native HCII"
same,"effect on rate of thrombin inhibition by plasma-derived HCII, dermatan sulfate",α-thrombin [3],no reduction in the apparent rate of inhibition
same,effect on thrombin-mediated plasma clotting,human thrombin; plasma clotting assay,"no effect; also recorded: no detectable ability to bind thrombin, to delay thrombin-mediated coagulation"
same,"Ki, inhibition of thrombin binding to HCII 1-75 (SPR)","thrombin [4]; 250 nM thrombin, chip-immobilized HCII 1-75, SPR 25°C, HBS pH 7.7, Ki from IC50 using KD 340 nM, mean of 3 determinations ± SD",No inhibition
same,thrombin binding,"thrombin [4]; summary statement, discussion/conclusions",no detectable ability to bind thrombin; also recorded: did not bind to thrombin
same,effect on thrombin binding to HCII 1-75,"thrombin [4]; up to 250 μM competitor, 250 nM thrombin, SPR",no effect on thrombin binding to HCII 1-75
"HCII 54-75 peptide: synthetic peptide to HCII residues 54-75 of ref [21] (GEEDDDYLDLEKIFSEDDDYID; not fully specified (N-terminus); UniProt P05546 73-94, looked up, fragment)",fold less potent than sulfo-Hir 54-65 as inhibitor of thrombin-mediated clotting,thrombin [5]; recalcified human plasma,approximately 30 fold
same,inhibition of thrombin activities,thrombin [5],inhibition of thrombin-mediated fibrinogen cleavage and clot formation
Biotinylated FPR chloromethylketone [bFPRck],amidolytic activity of modified thrombin against S2238,α-thrombin [6],no detectable amidolytic activity against S2238
"sulfo-Hir 54-65: Synthetic peptide containing the C-terminal 12 residues of hirudin, with Tyr63 sulfated [reference compound]",IC50,α-thrombin [7],140 ± 40 nM
same,concentration required to double the thrombin clotting time,"human thrombin; diluted citrated human plasma, Thrombin 10 reagent, mean of 3 determinations ± SD",0.150 ± 0.02 µM
same,Ki,"thrombin [4]; 250 nM thrombin, chip-immobilized HCII 1-75, SPR 25°C, HBS pH 7.7, Ki from IC50 using KD 340 nM, mean of 3 determinations ± SD, read-out: Ki, inhibition of thrombin binding to HCII 1-75 (SPR)",54 ± 90 nM
same,fold more effective competitor of thrombin binding than HCII 1-75,thrombin [4]; SPR competition,48 fold
